From publication PMC3633684

Substrate: CC(=O)Oc1ccc([N+](=O)[O-])cc1
Experiment: purified protein
Assay type: biochemical, Caulobacter vibrioides
Conditions: 40 mM phosphate buffer pH 7.4, 37 °C, 0.2 μM HfsH

B1: HfsH (Caulobacter vibrioides CB15) (protein)
chain: MPMEFEKVDAYEPDRSLKGKLRRRLIRLAHRRPAKVALERPMVSFSFDDAPATACEAGARALEARGLRGTYYFAAGLTGRDGPMGRYATGEDARRLHEAGHEIACHTYSHLDCGQSSQTETLADVDRNAESLAAWGAGDPVSFAYPYGDVAAPAKTALSGRFKTLRALHHGLITDGADLNQTPAVGIEGEDGETVAKAWLDKAKARKAWLILYTHDVAGQPSQWGCTTEALERLIDRALADGFDVVTVAEGSRRIGL
Km: 11.74 mM
